{"source": "paper PMC8975821", "about": "“TOX4 facilitates promoter-proximal pausing and C-terminal domain dephosphorylation of RNA polymerase II in human cells” (Communications Biology, 2022)", "binders": {"B1": {"name": "His-tagged PP1β (enzyme, UniProt P62140 1-327, looked up)", "chain": "MADGELNVDSLITRLLEVRGCRPGKIVQMTEAEVRGLCIKSREIFLSQPILLELEAPLKICGDIHGQYTDLLRLFEYGGFPPEANYLFLGDYVDRGKQSLETICLLLAYKIKYPENFFLLRGNHECASINRIYGFYDECKRRFNIKLWKTFTDCFNCLPIAAIVDEKIFCCHGGLSPDLQSMEQIRRIMRPTDVPDTGLLCDLLWSDPDKDVQGWGENDRGVSFTFGADVVSKFLNRHDLDLICRAHQVVEDGYEFFAKRQLVTLFSAPNYCGEFDNAGGMMSVDETLMCSFQILKPSEKKAKYQYGGLNSGRPVTPPRTANPPKKR", "notes": "PP1β, catalytic subunit of protein phosphatase 1 beta; cDNA cloned into pFASTBAC.1; also called His-PP1β; source: High Five cells infected with baculovirus, purified (HisPur Ni-NTA magnetic beads, imidazole elution)"}}, "target": "T1, 3× Flag-tagged TOX4 (UniProt O94842 1-621)", "T1 construct": "TOX4, cDNA cloned into pFASTBAC.1; Also used as the parent (on) of the region row from the co-IP with TOX4 fragments, whose own constructs are not described; also called 3× Flag-TOX4; source: High Five cells infected with baculovirus, purified (anti-Flag M2 magnetic beads, eluted with 3× Flag peptide); also purified from High Five cells as the TOX4-PP1α complex", "T1 sequence (looked up)": "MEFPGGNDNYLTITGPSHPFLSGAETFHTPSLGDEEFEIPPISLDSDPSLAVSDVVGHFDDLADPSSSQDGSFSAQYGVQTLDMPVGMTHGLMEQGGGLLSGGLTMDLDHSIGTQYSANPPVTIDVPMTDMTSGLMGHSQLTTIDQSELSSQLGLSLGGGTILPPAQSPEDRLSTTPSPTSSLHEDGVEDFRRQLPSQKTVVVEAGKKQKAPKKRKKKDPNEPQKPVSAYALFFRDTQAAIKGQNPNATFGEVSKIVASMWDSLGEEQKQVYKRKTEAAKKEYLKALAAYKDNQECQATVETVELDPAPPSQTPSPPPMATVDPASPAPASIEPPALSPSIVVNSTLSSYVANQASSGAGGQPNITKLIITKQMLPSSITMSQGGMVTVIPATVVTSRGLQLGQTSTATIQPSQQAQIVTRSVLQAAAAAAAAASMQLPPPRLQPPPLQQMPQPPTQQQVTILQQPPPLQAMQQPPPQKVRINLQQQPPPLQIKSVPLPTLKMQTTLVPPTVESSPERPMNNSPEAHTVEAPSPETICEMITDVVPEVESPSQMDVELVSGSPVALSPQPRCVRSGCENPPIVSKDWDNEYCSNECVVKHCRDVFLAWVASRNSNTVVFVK", "test": "co-IP; in vitro binding assay of individually purified TOX4 and PP1α, β or γ; PP1 co-immunoprecipitated with TOX4; Western blot, quantified by ImageJ", "conditions": "both partners purified"}
{"binder": "B1", "values": [{"measurement": "binding result", "result": "binds"}]}
